Laboratory results reported in the RNAGym collection of RNA variant scans (doi:10.7554/elife.90254).

B1: LINE1-full (parent)
chain: UACGUAGGUGGUUUUCCCCUGAUAGUGCUAAGGGGGCCUGGAAGUUUGGACUGGGCAGAGCUCAACACAGCGUGGCAAAGUGGCUGUGGCUAGACUGCCUCUCUGGAUUCCUCGUCACUCAGCAGGGCAUCUCUGAGAGAAAUGCC

Variants of: B1
Assay: self-cleavage, relative activity (ratio to wild type); higher = more cleavage; in vitro, sequencing; the parent is a self-cleaving ribozyme

| Variant | self-cleavage |
| --- | --- |
| UACGUAGGUGGUUUUCCCCUGAUAGUGCUAAGGGGGCCUGGAAGUUUGGACUGGGCAGAGCUCAACACAGCGUGGCAAAGUGGCUGUGGCUAGACUGCCUCUCUGGAUACCUCGUCACUCAGUAGGGCAUCUCUGAGAGAAAUGCC | 1.34 |
| UACGUAGGUGGUUUUCCCCUGAUAGUGCUAAGGGGGCCUGGAAGUUUGGACUGGGCAGAGCUCAACACAGCGUGGCAAAGUGGCUGUGGCUAGACUGCCUCUCUGGCUUCCUCGUCUCUCAGCAGGGCAUCUCUGAGAGAAAUGCC | 2.03 |
| UACGUAGGUGGUUUUCCCCUGAUAGUGCUAAGGGGGCCUGGAAGUUUGGACUGGGCAGAGCUCAACACAGCGUGGCAUAGUGGCUGUGGCUAGACUGCCUCUCUGGAUUCCUCGUCACUCAGCAGGGCAUCUCUGAGUGAAAUGCC | 2.15 |
| UACGUAGGUGGUUUUCCCCUGAUAGUGCUGAGGGGGCCUGGAAGUUUGGACUGGGCAGAGCUCCACACAGCGUGGCAAAGUGGCUGUGGCUAGACUGCCUCUCUGGAUUCCUCGUCACUCAGCAGGGCAUCUCUGAGAGAAAUGCC | 0.31 |
| UACGUAGGUGGUUUCCCCCUGAUAGUGCUAAGGGGGCCUGGAAGUUUGGACUGGGCAGAGCUCAACACAGCGUGGCAUAGUGGCUGUGGCUAGACUGCCUCUCUGGAUUCCUCGUCACUCAGCAGGGCAUCUCUGAGAGAAAUGCC | 2.44 |
| UACGUAGGUGGUUUUCCCCUGAUAGUGCUAAGGGGGCCUGGAAGUUUGGACUGGGCAGAGCUCAACACAGCGUGGCAAAGUGGCUGUGGCUAGACUGCCUCCCUGGAUUCCUCGUCACUCAGCAGGGCAACUCUGAGAGAAAUGCC | 2.21 |
| UACGUAGGUGGUUUUCCCCUGAUAGUGCUAAGGGGGCCUGGAAGUUUGGACUGGGCAGAGCUCAACACAGCGUGGCAAAGUGGCUGUGGCCAGACUGCCUCUCUGGAUUCCUCGUCUCUCAGCAGGGCAUCUCUGAGAGAAAUGCC | 0.92 |
| UACGUAGGUGGUUUUCCCCUGAUAGUGCUAAGGGGGCCUGGAAGUUUGGACUGGGCAGAGCUCAACACAGUGUGGCAAAGUGGCUGUGGCUAGACUGCCUCUCUGGAUACCUCGUCACUCAGCAGGGCAUCUCUGAGAGAAAUGCC | 0.41 |
| UACGUAGGUGGUUUUCCCCUAAUAGUGCUAAGGGGGCCUGGAAGUUUGGACUGGGCAGAGCUCAACCCAGCGUGGCAAAGUGGCUGUGGCUAGACUGCCUCUCUGGAUUCCUCGUCACUCAGCAGGGCAUCUCUGAGAGAAAUGCC | 0.02 |
| UACGUAGGUGGUUUUCCCCUGAUAGUGCUAAGGGGGCCUGAAAGUUUGGACUGGGCAGAGCUCAACACAGCGUGGCAGAGUGGCUGUGGCUAGACUGCCUCUCUGGAUUCCUCGUCACUCAGCAGGGCAUCUCUGAGAGAAAUGCC | 0.58 |
| UACGUAGGUGGUUUUCCCCUGAUAGUGCUAAGGGGGCCUGGAAGUCUGGACUGGGCAGAGCUCAACACGGCGUGGCAAAGUGGCUGUGGCUAGACUGCCUCUCUGGAUUCCUCGUCACUCAGCAGGGCAUCUCUGAGAGAAAUGCC | 0.85 |
| UACGUAGGUGGUUCUCCCCUGAUAGUGCUAAGGGGGCUUGGAAGUUUGGACUGGGCAGAGCUCAACACAGCGUGGCAAAGUGGCUGUGGCUAGACUGCCUCUCUGGAUUCCUCGUCACUCAGCAGGGCAUCUCUGAGAGAAAUGCC | 1.09 |
| UACGCAGGUGGUUUUCCCCUGAUAGUGCUAAGGGGGCCUGGAAGUUUGGACUGGGCAGAACUCAACACAGCGUGGCAAAGUGGCUGUGGCUAGACUGCCUCUCUGGAUUCCUCGUCACUCAGCAGGGCAUCUCUGAGAGAAAUGCC | 0.08 |
| UACGUAGGUGGUUUUCCCCUGAUAGUGCUAAGGGGGCCUGGAAGUUUGGACUGGGCAGAGCUCAACACAGCGUGGCAAAGUGGCUGUGGCUAGACUGCCUCUCUGGAUUCCUCGUCACUCAGCAGAGCAUCUCUGUGAGAAAUGCC | 1.41 |
| UACGUAGGUGGUUUUCCCCUGGUAGUGCUAAGGGGGCCUGGAAGUUUGGACUGGGCAGAGCUCAACACAGCGUGGCAAUGUGGCUGUGGCUAGACUGCCUCUCUGGAUUCCUCGUCACUCAGCAGGGCAUCUCUGAGAGAAAUGCC | 1.51 |
| UACGUAGGUGGUUUGCCCCUGAUAGUGCUAAGGGGGCCUGGAAUUUUGGACUGGGCAGAGCUCAACACAGCGUGGCAAAGUGGCUGUGGCUAGACUGCCUCUCUGGAUUCCUCGUCACUCAGCAGGGCAUCUCUGAGAGAAAUGCC | 0.96 |
| UACGUAGGUGGUUUUCCCCUGACAGUGCUAAGGGGGCCUGGAAGUUUGGACUGGGCAGAGCUCAACACAGCGUGGCAAAGUGGCUGUGGCUAGACUGCUUCUCUGGAUUCCUCGUCACUCAGCAGGGCAUCUCUGAGAGAAAUGCC | 0.91 |
| UACGUAGGUGGUUUUCCCCUGAUAGUGCUAAGGGGGCCUGGAAGUUUGGACUGGGCAGAGCUCAACACAGCGAGGCAAAGUGGCUGUGGCUAGACUGCCUCUCUGGAUUCCGCGUCACUCAGCAGGGCAUCUCUGAGAGAAAUGCC | 1.53 |
| UACGUAGGUGGUUUUCCCCUGAUAGUGCUAAGGGGGCCUGGAAGUUUGGACUGGGCAGAGCUCAGCACAGCGUGGCAUAGUGGCUGUGGCUAGACUGCCUCUCUGGAUUCCUCGUCACUCAGCAGGGCAUCUCUGAGAGAAAUGCC | 0.03 |
| UACGUAGGUGGUUUUCCCCUGAUAGUGCUAAGGGGGCCUGGAAGUUUGGACUGGGCAGAGCUCAACACAGCGUGGCAAAGUGGCUGUGGCUAGACUGCCUCUCUGGAUUCCUCGUCACUCGGCAGGGCAUCCCUGAGAGAAAUGCC | 1.58 |

| Variant | self-cleavage |
| --- | --- |
| UACGUAGGUGGUUUUCCCCCGAUAGUGCUAAGGGGGCCUGGAAGGUUGGACUGGGCAGAGCUCAACACAGCGUGGCAAAGUGGCUGUGGCUAGACUGCCUCUCUGGAUUCCUCGUCACUCAGCAGGGCAUCUCUGAGAGAAAUGCC | 1.38 |
| UACGUAGGUGGUUUUCCCCUGAUAGUGCUAAGGGGGCCUGGAAGUUUGGACUUGGCAGAUCUCAACACAGCGUGGCAAAGUGGCUGUGGCUAGACUGCCUCUCUGGAUUCCUCGUCACUCAGCAGGGCAUCUCUGAGAGAAAUGCC | 0.03 |
| UACGUAGGUGGUUUUCCCCUGAUAGUGCUAAGGGGGCCUGGAGGUUUGGACUGGGCAGAGCUCAACACAGCGUGGCAAAGUGGCUGUGGCUAGACUGCCUCUCUGGAUACCUCGUCACUCAGCAGGGCAUCUCUGAGAGAAAUGCC | 1.46 |
| UACGUAGGUGGUUUUCCCCUGAUAGUGCUAAGGGGGCCUGGAAGUUUGGACUGGGCAGAGCUCAACACAGCGUGGCUAAGUGGCUGUGGCUAGACUGCCUCUCUGGAUUCCUCGUCACUCAGCAGGGCAUCUCUGAGAGAAAUGCA | 1.23 |
| UAUGUAGGUGGUUUUCCCCUGAUAGUGCUAUGGGGGCCUGGAAGUUUGGACUGGGCAGAGCUCAACACAGCGUGGCAAAGUGGCUGUGGCUAGACUGCCUCUCUGGAUUCCUCGUCACUCAGCAGGGCAUCUCUGAGAGAAAUGCC | 0.37 |
| UACGUAGGUGGUUUUCCCCUGAUAGUGCUUAGGGGGCCUGGAAGUUUGGACUGGGCAGAGCUCAACACAGCGUGGCAACGUGGCUGUGGCUAGACUGCCUCUCUGGAUUCCUCGUCACUCAGCAGGGCAUCUCUGAGAGAAAUGCC | 1.19 |
| UACGUAGGCGGUUUUCCCCUGAUAGUGCUAAGGGGGCCUGGAAGUUUGGACUGGGCAGAGCUCAACACAGCGUGGCAAAGUGGCUGUGGCUAGACUGCCUCUUUGGAUUCCUCGUCACUCAGCAGGGCAUCUCUGAGAGAAAUGCC | 1.4 |
| UACGUAGGUGGUUUUCCCCUGAUAGUGCUAAGGGGGCCUGGAAGUUUGGACUGGGCAGAGCUCAACACAGCGUGGCAAAGUGGCUGAGGCUAGACUGCCUCUCUGGAUUCCUCGUCACUCAACAGGGCAUCUCUGAGAGAAAUGCC | 0.09 |
| UACGUAGGUGGUUUUCCCCUGAUAGUGCUAGGGGGGCCAGGAAGUUUGGACUGGGCAGAGCUCAACACAGCGUGGCAAAGUGGCUGUGGCUAGACUGCCUCUCUGGAUUCCUCGUCACUCAGCAGGGCAUCUCUGAGAGAAAUGCC | 0.49 |
| UACGUAGGUGGUUUCCCCCUGAUAGUGCUAAGGGGGCCAGGAAGUUUGGACUGGGCAGAGCUCAACACAGCGUGGCAAAGUGGCUGUGGCUAGACUGCCUCUCUGGAUUCCUCGUCACUCAGCAGGGCAUCUCUGAGAGAAAUGCC | 1.56 |
| UACGUAGGUGGUUUUCCCCUGAUAGUGCUAAGGGGACCUGGAAGUUUGGACUGGGCAGAGCUCAACACAGCGUGGCAAAGUGGCUGUGGCUAGACUGCCUCUCUGGAUUCCUCGUCACUCAGCAGGGCAUCUCUGAGAGAAACGCC | 1.57 |
| UACGUAGGUGGUGUUCCCCUGAUAGUGCUAAGGGGGCCUGGAAGUUUGGACUGGGCAGAGCUCAACUCAGCGUGGCAAAGUGGCUGUGGCUAGACUGCCUCUCUGGAUUCCUCGUCACUCAGCAGGGCAUCUCUGAGAGAAAUGCC | 0.13 |
| UACGUAGGUGGUUUUCCCCUGAUAGUGCUAAGGGGGCCUGGAAGUUUGGACUGGGCAGAGCUCAACACAGCGUGGCAAUGCGGCUGUGGCUAGACUGCCUCUCUGGAUUCCUCGUCACUCAGCAGGGCAUCUCUGAGAGAAAUGCC | 0.4 |
| UACGUAGGUGGUUUUCCCCUGAUAGUGCUAAGGGGGCCAGGAAGUUUGGACUGGGCAGAGCUCGACACAGCGUGGCAAAGUGGCUGUGGCUAGACUGCCUCUCUGGAUUCCUCGUCACUCAGCAGGGCAUCUCUGAGAGAAAUGCC | 0.21 |
| UACGUAGGUGGUUUUCCCCUGAUAGUGCUGAGGGGGCCUGGAAGUUUGGACUGGGCAGAGCUCAACACAGCGUGGCAAAGUGGCUGUGGCUAGACUGCCUCUCUGGAUUCCUCGUCACUCAGCAGGGCGUCUCUGAGAGAAAUGCC | 0.72 |
| UACGUAGGUGGUAUUCCCCUGAUAGUGCUAAGGGGGCCUGGAAGUUUGGACUGGGCAGAGCUCAACACAGCGUGGCAAAGUGGCUGUGGCUAGACUGCCUCUCUGGAUUCCUCGUCACUCAGCAGGGCAUCUCCGAGAGAAAUGCC | 0.85 |
| UACGUGGGUGGUUUUCCCCUGAUAGUGCUAAGGGGGCCUGGAAGUUUGGACUGGGCAGAGCUCAACACAGCGUGGCAAAGUGGCUGUGGCUAGACUGCCUCUCCGGAUUCCUCGUCACUCAGCAGGGCAUCUCUGAGAGAAAUGCC | 1.23 |
| UACGUAGGUGGUUUUCACCUGAUAGUGCUAAGGGGGCCUGGAAGUUUGGACUGGGCAGAGCUCAACACAGCGUGGCAAUGUGGCUGUGGCUAGACUGCCUCUCUGGAUUCCUCGUCACUCAGCAGGGCAUCUCUGAGAGAAAUGCC | 0.87 |
| UACGUAGGUGGUUUUCCCCUGAUAGUGCUAAGGGGGCCUGGAAGUUUGGACUGGGCAGAGCUCAACACGGCGUGGCAAAGUGGCUGUGGCUAGACUGCCUCUCUGGAUUCCUCGCCACUCAGCAGGGCAUCUCUGAGAGAAAUGCC | 0.88 |
